From the supplement of paper PMC10126150
± gives the standard deviation of the averaged measurements.

tested on: ATP; experiment: switch fluorescence ratio, 500 uM ATP over buffer (Cy3 cluster intensity, sum of 5 cycles each) (fold (ratio)); higher = stronger signal-on switching upon ATP binding; sequences stand for … in TCGTCGGCAGCGTCAGATGTGTATAAGAGACAGTTTTTTTTTTTTTTTTTTTTTTTTT…TC; conditions: aptamer strand: ATP DNA aptamer (quencher-CACCTGGGGGAGTATTGCGGAGGAAGG + anchor), 100 nM annealed; ATP concentration: 500 uM
Method in brief: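 Between each of five buffer/ATP cycles, the flow-cell was stripped with NaOH and re-annealed. Each cycle imaged Cy3-labelled switching-strand clusters, annealed to 100 nM quencher-labelled ATP aptamer on a modified Illumina MiSeq flow-cell, first in selection buffer and then after 15 min with 500 uM ATP at 22 °C. The fluorescence ratio is summed target-cycle over summed buffer-cycle Cy3 intensity per cluster, averaged per switch-domain sequence, with clusters outside 100-1000 RFU excluded.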
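Further: ATP exposure 15 min at 22 °C before imaging.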

| Sequence | switch fluorescence ratio |
| --- | --- |
| GACTATAGAT | 1.05 ± 0.034 |
| GACTATGAAG | 0.99431 ± 0.00011 |
| GACTATTGGT | 0.969 ± 0.0098 |
| GACTCGAGGG | 0.99 ± 0.083 |
| GACTCGATCC | 1.08 ± 0.023 |
| GACTGCATCG | 1.03 ± 0.015 |
| GACTGCTATA | 1.44 ± 0.043 |
| GACTGGATGG | 0.98 ± 0.011 |
| GACTGGCACG | 1.03 ± 0.034 |
| GACTGGGACT | 1.08 ± 0.05 |
| GACTGGGGGT | 0.998 ± 0.033 |
| GACTGGGTCG | 1.06 ± 0.012 |
| GACTGTAAGG | 0.997 ± 0.08 |
| GACTGTGATG | 0.9708 ± 0.0097 |
| GACTTAGGGA | 0.9949 ± 0.0013 |
| GACTTCCATT | 1.07 ± 0.016 |
| GACTTTATGG | 0.99 ± 0.035 |
| GACTTTGAAT | 1.014 ± 0.0089 |
| GACTTTTTGT | 0.994 ± 0.011 |
| GAGAAAAACC | 1.02 ± 0.041 |
| GAGAAAAGTG | 1.03 ± 0.086 |
| GAGAAACATT | 1.06 ± 0.029 |
| GAGAAAGCAG | 0.977 ± 0.025 |
| GAGAAAGGCT | 0.97 ± 0.019 |
| GAGAAAGGGT | 0.988 ± 0.019 |

| Sequence | switch fluorescence ratio |
| --- | --- |
| GAGAAATCTT | 1.01 ± 0.03 |
| GAGAAATGAT | 0.984 ± 0.0087 |
| GAGAAGCACG | 0.978 ± 0.055 |
| GAGAAGTTTG | 1.01 ± 0.018 |
| GAGAATAGAG | 0.989 ± 0.022 |
| GAGAATAGCG | 0.988 ± 0.028 |
| GAGAATCACG | 0.9961 ± 0.0024 |
| GAGAATCGGG | 0.9564 ± 0.0089 |
| GAGACAAGGA | 0.97095 ± 8.1e-05 |
| GAGACATGTT | 0.99 ± 0.065 |
| GAGACCTTTT | 1.13 ± 0.17 |
| GAGAGATGGG | 0.988 ± 0.018 |
| GAGAGGAGGC | 1.07 ± 0.063 |
| GAGAGGCAAA | 1.01 ± 0.018 |
| GAGAGGGGAT | 1.03 ± 0.036 |
| GAGAGGGGCA | 0.999 ± 0.018 |
| GAGAGGTCGG | 1.012 ± 0.0016 |
| GAGAGGTTGT | 1 ± 0.024 |
| GAGAGTCTTC | 0.985 ± 0.0088 |
| GAGAGTGCGG | 1.04 ± 0.0067 |
| GAGAGTTGCG | 1.04 ± 0.027 |
| GAGAGTTGGG | 0.985 ± 0.022 |
| GAGATAAGCC | 1.03 ± 0.022 |
| GAGATAGGTA | 0.997 ± 0.024 |
| GAGATATGAG | 1.02 ± 0.024 |

| Sequence | switch fluorescence ratio |
| --- | --- |
| GAGATATTTA | 0.9905 ± 0.0036 |
| GAGATCGAGG | 1.03 ± 0.017 |
| GAGATCTGCT | 0.957 ± 0.015 |
| GAGATGGTGC | 0.99 ± 0.053 |
| GAGATGTTAG | 0.971 ± 0.017 |
| GAGATTGCGT | 1.01 ± 0.028 |
| GAGATTGGTT | 1.007 ± 0.0072 |
| GAGATTGTGA | 0.992 ± 0.039 |
| GAGATTTAGC | 1.03 ± 0.035 |
| GAGATTTTGT | 0.998 ± 0.036 |
| GAGCAACGGA | 1.02 ± 0.031 |
| GAGCAGTCGG | 0.982 ± 0.036 |
| GAGCCTGGTT | 0.967 ± 0.035 |
| GAGCCTTTGT | 1.002 ± 0.006 |
| GAGCGAGGGG | 0.9836 ± 0.0074 |
| GAGCGCTTGG | 1.01 ± 0.037 |
| GAGCGGCGGG | 0.996 ± 0.026 |
| GAGCGGGATG | 0.986 ± 0.031 |
| GAGCGGTTAT | 1.33 ± 0.42 |
| GAGCGTGACG | 1 ± 0.045 |
| GAGCTACCCG | 1.04 ± 0.031 |
| GAGCTACGTA | 1.04 ± 0.026 |
| GAGCTAGAAA | 1.05 ± 0.065 |
| GAGCTATTCT | 1.08 ± 0.0029 |
| GAGCTCAAGT | 0.991 ± 0.062 |

| Sequence | switch fluorescence ratio |
| --- | --- |
| GAGCTCACGG | 1.02 ± 0.017 |
| GAGCTCCAGA | 1.0093 ± 0.00081 |
| GAGCTCTTTC | 1.01 ± 0.017 |
| GAGCTGAGCG | 0.996 ± 0.031 |
| GAGCTGTAAC | 1.02 ± 0.053 |
| GAGGAAAGGG | 0.989 ± 0.013 |
| GAGGACCCAG | 1.01 ± 0.027 |
| GAGGACGGTG | 1.03 ± 0.015 |
| GAGGACTAGG | 1.01 ± 0.013 |
| GAGGACTATT | 0.999 ± 0.046 |
| GAGGAGCTAA | 1.006 ± 0.0034 |
| GAGGATGCTC | 1.01 ± 0.015 |
| GAGGATTGTG | 0.976 ± 0.012 |
| GAGGATTTAG | 0.964 ± 0.013 |
| GAGGATTTTG | 1.003 ± 0.0089 |
| GAGGCAAGTG | 1.12 ± 0.055 |
| GAGGCAATTT | 2.87 ± 0.68 |
| GAGGCAGGGG | 1.04 ± 0.072 |
| GAGGCAGTTG | 0.993 ± 0.076 |
| GAGGCATGGA | 0.9864 ± 0.0039 |
| GAGGCATGGG | 1.027 ± 0.0065 |
| GAGGCCCTGA | 0.971 ± 0.035 |
| GAGGCCGGAA | 1.07 ± 0.016 |
| GAGGCGCAGT | 0.9988 ± 0.0024 |
| GAGGCGGGGG | 0.988 ± 0.012 |
